Experimental data reported in paper PMC11697363 (Nature Communications, 2025).

Target: T1, GST-Pelota (Arabidopsis thaliana, UniProt Q9ZT87 1-378)
T1 sequence (looked up): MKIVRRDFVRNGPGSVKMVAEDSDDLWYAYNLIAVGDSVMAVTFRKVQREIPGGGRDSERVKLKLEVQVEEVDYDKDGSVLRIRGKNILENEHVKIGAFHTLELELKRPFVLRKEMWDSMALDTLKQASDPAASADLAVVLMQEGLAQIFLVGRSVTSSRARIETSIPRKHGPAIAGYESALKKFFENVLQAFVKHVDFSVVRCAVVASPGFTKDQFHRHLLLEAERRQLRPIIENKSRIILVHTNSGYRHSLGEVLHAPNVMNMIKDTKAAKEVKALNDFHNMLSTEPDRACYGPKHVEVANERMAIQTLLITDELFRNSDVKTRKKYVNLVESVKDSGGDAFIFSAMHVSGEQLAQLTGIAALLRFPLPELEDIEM
Experiment: pull-down

binding result: binds
B1: MBP-SCE1 (enzyme, Arabidopsis thaliana, UniProt Q42551 1-160, looked up)
chain: MASGIARGRLAEERKSWRKNHPHGFVAKPETGQDGTVNLMVWHCTIPGKAGTDWEGGFFPLTMHFSEDYPSKPPKCKFPQGFFHPNVYPSGTVCLSILNEDYGWRPAITVKQILVGIQDLLDTPNPADPAQTDGYHLFCQDPVEYKKRVKLQSKQYPALV
